The target of data set [1] is T1, eIF4A2 (UniProt Q14240 1-407). The experiment in a line: fluorescence anisotropy; 1 mM AMP-PNP, 1 mM Mg2+; 20 mM Hepes/KOH pH 7.5, 100 (mM) KCl, 1 mM MgCl2, 1 mM AMP-PNP, 1 mM TCEP, 0.1% DMSO, +/-50 uM silvestrol (10 uM in Fig 4a legend), 60 min, 25 C; numeric Kd of. The conditions noted are these: protein: recombinant; tags: SUMO tag cleaved; label: 5' FAM; single strand, unstructured. On the technique in general: In fluorescence polarisation assays a small probe gives low polarisation when free and higher when bound to something large.
T1 sequence (Q14240 whole entry): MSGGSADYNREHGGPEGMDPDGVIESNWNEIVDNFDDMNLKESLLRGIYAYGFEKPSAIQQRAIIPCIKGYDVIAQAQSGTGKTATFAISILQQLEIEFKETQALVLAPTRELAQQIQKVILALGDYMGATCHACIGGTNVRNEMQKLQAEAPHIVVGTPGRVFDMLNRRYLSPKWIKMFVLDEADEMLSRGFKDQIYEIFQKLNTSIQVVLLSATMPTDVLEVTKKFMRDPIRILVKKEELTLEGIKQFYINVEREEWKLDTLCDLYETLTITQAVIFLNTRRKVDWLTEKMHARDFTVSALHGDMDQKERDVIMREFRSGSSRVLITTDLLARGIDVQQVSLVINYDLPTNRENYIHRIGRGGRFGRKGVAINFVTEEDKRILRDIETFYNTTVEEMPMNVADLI

In data set [2] the target is T1, eIF4A2. Description: EMSA; AMP-PNP; bound even under high molar excess of (CAA)6CA; 20 mM Hepes/KOH pH 7.5, 100 (mM) KCl, 1 mM MgCl2, 1 mM AMP-PNP, 1 mM TCEP, 0.1% DMSO, +/-50 uM silvestrol (10 uM in Fig 4a legend), 60 min, 25 C; numeric Kd of. The conditions noted are these: protein: recombinant; tags: SUMO tag cleaved; label: Dy780; single strand. (In general: Mobility shift assays separate free from complexed probe on a gel.)

In data set [3] the target is T1, eIF4A2. The experiment in a line: fluorescence anisotropy; AMP-PNP; 20 mM Hepes/KOH pH 7.5, 100 (mM) KCl, 1 mM MgCl2, 1 mM AMP-PNP, 1 mM TCEP, 0.1% DMSO, +/-50 uM silvestrol (10 uM in Fig 4a legend), 60 min, 25 C; numeric Kd of. The conditions noted are these: protein: recombinant; tags: SUMO tag cleaved; label: FAM; blunt.
Data set [4] has as its target eIF4A1 (UniProt P60842 1-406). Described as above. The conditions noted are these: protein: recombinant; tags: SUMO tag cleaved; label: FAM; blunt.
Data set [5] deals with T1, eIF4A2. Description: competition; 20-fold excess; readily displaces pre-bound FAM-(CAA)6CA; 20 mM Hepes/KOH pH 7.5, 100 (mM) KCl, 1 mM MgCl2, 1 mM AMP-PNP, 1 mM TCEP, 0.1% DMSO, +/-50 uM silvestrol (10 uM in Fig 4a legend), 60 min, 25 C; numeric Kd of. The conditions noted are these: protein: recombinant; tags: SUMO tag cleaved; label: none; single strand.

Sequence of eIF4A1 (P60842 whole entry): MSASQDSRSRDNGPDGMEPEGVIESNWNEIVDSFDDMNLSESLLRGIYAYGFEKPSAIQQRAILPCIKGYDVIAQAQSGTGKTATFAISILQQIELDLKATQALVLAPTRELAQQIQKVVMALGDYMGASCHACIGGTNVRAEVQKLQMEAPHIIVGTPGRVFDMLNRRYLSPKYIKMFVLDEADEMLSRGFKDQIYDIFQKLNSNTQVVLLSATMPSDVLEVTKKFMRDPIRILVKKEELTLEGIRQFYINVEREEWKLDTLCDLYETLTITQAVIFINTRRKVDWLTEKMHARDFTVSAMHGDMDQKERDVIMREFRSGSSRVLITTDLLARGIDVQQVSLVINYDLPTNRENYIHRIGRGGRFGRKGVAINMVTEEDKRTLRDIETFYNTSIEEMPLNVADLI

For AGAGAGAGAGAGAGAGAGAG (ssRNA) [(AG)10 ssRNA], the binding result in data set [1] was “binds”.

As to AGAGAGAGAGAGAGAGAGAG (ssRNA) [Dy780-(AG)10 ssRNA], the binding result in data set [2] is on record as “binds”.

B1: (AG)10:(CU)10 dsRNA (dsRNA)
RNA 1: AGAGAGAGAGAGAGAGAGAG
RNA 2: CUCUCUCUCUCUCUCUCUCU
For B1, the binding result in data set [3] and in data set [4] was “no binding” throughout.

For AGAGAGAGAGAGAGAGAGAG (ssRNA) [(AG)10 unlabelled competitor], the binding result in data set [5] is listed as “binds”.

The values above are taken from article PMC6886185, “eIF4A2 drives repression of translation at initiation by Ccr4-Not through purine-rich motifs in the 5′UTR”.
